Test results from patent publication US20180016354A1 (Merck KGaA, published 2018).

B1: Domain-exchanged one-armed anti-EGFR antibody (CH3-KiH domain-exchanged hu425 Fab on SEED AG heavy chain, with huFc_GA SEED) (antibody)
heavy: QVQLVQSGAEVKKPGASVKVSCKASGYTFTSHWMHWVRQAPGQGLEWIGEFNPSNGRTNYNEKFKSKATMTVDTSTNTAYMELSSLRSEDTAVYYCASRDYDYDGRYFDYWGQGTLVTVSSASTKGEPQVYTLPPSRDELTKNQVSLYCLVKGFYPSDIAVEWESNGQPENNYKTTPPVLDSDGSFFLYSKLTVDKSRWQQGNVFSCSVMHEALHNHYTQKSLSLSKSCDKTHTCPPCPAPELLGGPSVFLFPPKPKDTLMISRTPEVTCVVVDVSHEDPEVKFNWYVDGVEVHNAKTKPREEQYNSTYRVVSVLTVLHQDWLNGKEYKCKVSNKALPAPIEKTISKAKGQPFRPEVHLLPPSREEMTKNQVSLTCLARGFYPKDIAVEWESNGQPENNYKTTPSRQEPSQGTTTFAVTSKLTVDKSRWQQGNVFSCSVMHEALHNHYTQKTISLSPGK
chain: EPKSSDKTHTCPPCPAPELLGGPSVFLFPPKPKDTLMISRTPEVTCVVVDVSHEDPEVKFNWYVDGVEVHNAKTKPREEQYNSTYRVVSVLTVLHQDWLNGKEYKCKVSNKALPAPIEKTISKAKGQPREPQVYTLPPPSEELALNELVTLTCLVKGFYPSDIAVEWLQGSQELPREKYLTWAPVLDSDGSFFLYSILRVAAEDWKKGDTFSCSVMHEALHNHYTQKSLDRSPGK
light: DIQMTQSPSSLSASVGDRVTITCSASSSVTYMYWYQQKPGKAPKLLIYDTSNLASGVPSRFSGSGSGTDYTFTISSLQPEDIATYYCQQWSSHIFTFGQGTKVEIKRTVAEPQVYTLPPSRDELTKNQVSLTCLVKGFYPSDIAVEWESNGQPENNYKTTPPVLDSDGSFFLTSKLTVDKSRWQQGNVFSCSVMHEALHNHYTQKSLSLSGEC
notes: One Fab arm only (monovalent); also called One-armed CH3 domain-exchanged anti-EGFR antibody; one-armed domain-exchanged anti-EGFR antibody
B2: one-armed anti-EGFR SEED antibody with Charge pair CH3 domain-exchanged Fab, Variant 1 (antibody)
heavy: QVQLVQSGAEVKKPGASVKVSCKASGYTFTSHWMHWVRQAPGQGLEWIGEFNPSNGRTNYNEKFKSKATMTVDTSTNTAYMELSSLRSEDTAVYYCASRDYDYDGRYFDYWGQGTLVTVSSASTKGEPQVYTLPPSRKEMTKNQVSLTCLVKGFYPSDIAVEWESNGQPENNYKTTPPVLKSDGSFFLYSKLTVDKSRWQQGNVFSCSVMHEALHNHYTQKSLSLSKSCDKTHTCPPCPAPELLGGPSVFLFPPKPKDTLMISRTPEVTCVVVDVSHEDPEVKFNWYVDGVEVHNAKTKPREEQYNSTYRVVSVLTVLHQDWLNGKEYKCKVSNKALPAPIEKTISKAKGQPFRPEVHLLPPSREEMTKNQVSLTCLARGFYPKDIAVEWESNGQPENNYKTTPSRQEPSQGTTTFAVTSKLTVDKSRWQQGNVFSCSVMHEALHNHYTQKTISLSPGK
light: DIQMTQSPSSLSASVGDRVTITCSASSSVTYMYWYQQKPGKAPKLLIYDTSNLASGVPSRFSGSGSGTDYTFTISSLQPEDIATYYCQQWSSHIFTFGQGTKVEIKRTVAEPQVYTLPPSREEMTKNQVSLTCLVKGFYPSDIAVEWESNGQPENNYDTTPPVLDSDGSFFLYSDLTVDKSRWQQGNVFSCSVMHEALHNHYTQKSLSLSGEC
chain: EPKSSDKTHTCPPCPAPELLGGPSVFLFPPKPKDTLMISRTPEVTCVVVDVSHEDPEVKFNWYVDGVEVHNAKTKPREEQYNSTYRVVSVLTVLHQDWLNGKEYKCKVSNKALPAPIEKTISKAKGQPREPQVYTLPPPSEELALNELVTLTCLVKGFYPSDIAVEWLQGSQELPREKYLTWAPVLDSDGSFFLYSILRVAAEDWKKGDTFSCSVMHEALHNHYTQKSLDRSPGK
notes: hu425 Fv; one Fab arm only; also called Charge pair variant 1
B3: one-armed anti-EGFR SEED antibody with Azymetric CH3 domain-exchanged Fab, Variant 1 (antibody)
heavy: QVQLVQSGAEVKKPGASVKVSCKASGYTFTSHWMHWVRQAPGQGLEWIGEFNPSNGRTNYNEKFKSKATMTVDTSTNTAYMELSSLRSEDTAVYYCASRDYDYDGRYFDYWGQGTLVTVSSASTKGEPQVYVYPPSREEMTKNQVSLTCLVKGFYPSDIAVEWESNGQPENNYKTTPPVLDSDGSFALVSKLTVDKSRWQQGNVFSCSVMHEALHNHYTQKSLSLSKSCDKTHTCPPCPAPELLGGPSVFLFPPKPKDTLMISRTPEVTCVVVDVSHEDPEVKFNWYVDGVEVHNAKTKPREEQYNSTYRVVSVLTVLHQDWLNGKEYKCKVSNKALPAPIEKTISKAKGQPFRPEVHLLPPSREEMTKNQVSLTCLARGFYPKDIAVEWESNGQPENNYKTTPSRQEPSQGTTTFAVTSKLTVDKSRWQQGNVFSCSVMHEALHNHYTQKTISLSPGK
light: DIQMTQSPSSLSASVGDRVTITCSASSSVTYMYWYQQKPGKAPKLLIYDTSNLASGVPSRFSGSGSGTDYTFTISSLQPEDIATYYCQQWSSHIFTFGQGTKVEIKRTVAEPQVYVLPPSREEMTKNQVSLLCLVKGFYPSDIAVEWESNGQPENNYLTWPPVLDSDGSFFLYSKLTVDKSRWQQGNVFSCSVMHEALHNHYTQKSLSLSGEC
chain: EPKSSDKTHTCPPCPAPELLGGPSVFLFPPKPKDTLMISRTPEVTCVVVDVSHEDPEVKFNWYVDGVEVHNAKTKPREEQYNSTYRVVSVLTVLHQDWLNGKEYKCKVSNKALPAPIEKTISKAKGQPREPQVYTLPPPSEELALNELVTLTCLVKGFYPSDIAVEWLQGSQELPREKYLTWAPVLDSDGSFFLYSILRVAAEDWKKGDTFSCSVMHEALHNHYTQKSLDRSPGK
notes: hu425 Fv; one Fab arm only; also called hu425 CH3-Azymmetric variant 1
B4: one-armed anti-EGFR SEED antibody with Azymetric CH3 domain-exchanged Fab, Variant 2 (antibody)
heavy: QVQLVQSGAEVKKPGASVKVSCKASGYTFTSHWMHWVRQAPGQGLEWIGEFNPSNGRTNYNEKFKSKATMTVDTSTNTAYMELSSLRSEDTAVYYCASRDYDYDGRYFDYWGQGTLVTVSSASTKGEPQVYVLPPSREEMTKNQVSLLCLVKGFYPSDIAVEWESNGQPENNYLTWPPVLDSDGSFFLYSKLTVDKSRWQQGNVFSCSVMHEALHNHYTQKSLSLSKSCDKTHTCPPCPAPELLGGPSVFLFPPKPKDTLMISRTPEVTCVVVDVSHEDPEVKFNWYVDGVEVHNAKTKPREEQYNSTYRVVSVLTVLHQDWLNGKEYKCKVSNKALPAPIEKTISKAKGQPFRPEVHLLPPSREEMTKNQVSLTCLARGFYPKDIAVEWESNGQPENNYKTTPSRQEPSQGTTTFAVTSKLTVDKSRWQQGNVFSCSVMHEALHNHYTQKTISLSPGK
light: DIQMTQSPSSLSASVGDRVTITCSASSSVTYMYWYQQKPGKAPKLLIYDTSNLASGVPSRFSGSGSGTDYTFTISSLQPEDIATYYCQQWSSHIFTFGQGTKVEIKRTVAEPQVYVYPPSREEMTKNQVSLTCLVKGFYPSDIAVEWESNGQPENNYKTTPPVLDSDGSFALVSKLTVDKSRWQQGNVFSCSVMHEALHNHYTQKSLSLSGEC
chain: EPKSSDKTHTCPPCPAPELLGGPSVFLFPPKPKDTLMISRTPEVTCVVVDVSHEDPEVKFNWYVDGVEVHNAKTKPREEQYNSTYRVVSVLTVLHQDWLNGKEYKCKVSNKALPAPIEKTISKAKGQPREPQVYTLPPPSEELALNELVTLTCLVKGFYPSDIAVEWLQGSQELPREKYLTWAPVLDSDGSFFLYSILRVAAEDWKKGDTFSCSVMHEALHNHYTQKSLDRSPGK
notes: hu425 Fv; one Fab arm only; also called hu425 CH3-Azymmetric variant 2
B5: one-armed anti-EGFR SEED antibody with Charge pair CH3 domain-exchanged Fab, Variant 2 (antibody)
heavy: QVQLVQSGAEVKKPGASVKVSCKASGYTFTSHWMHWVRQAPGQGLEWIGEFNPSNGRTNYNEKFKSKATMTVDTSTNTAYMELSSLRSEDTAVYYCASRDYDYDGRYFDYWGQGTLVTVSSASTKGEPQVYTLPPSREEMTKNQVSLTCLVKGFYPSDIAVEWESNGQPENNYDTTPPVLDSDGSFFLYSDLTVDKSRWQQGNVFSCSVMHEALHNHYTQKSLSLSKSCDKTHTCPPCPAPELLGGPSVFLFPPKPKDTLMISRTPEVTCVVVDVSHEDPEVKFNWYVDGVEVHNAKTKPREEQYNSTYRVVSVLTVLHQDWLNGKEYKCKVSNKALPAPIEKTISKAKGQPFRPEVHLLPPSREEMTKNQVSLTCLARGFYPKDIAVEWESNGQPENNYKTTPSRQEPSQGTTTFAVTSKLTVDKSRWQQGNVFSCSVMHEALHNHYTQKTISLSPGK
light: DIQMTQSPSSLSASVGDRVTITCSASSSVTYMYWYQQKPGKAPKLLIYDTSNLASGVPSRFSGSGSGTDYTFTISSLQPEDIATYYCQQWSSHIFTFGQGTKVEIKRTVAEPQVYTLPPSRKEMTKNQVSLTCLVKGFYPSDIAVEWESNGQPENNYKTTPPVLKSDGSFFLYSKLTVDKSRWQQGNVFSCSVMHEALHNHYTQKSLSLSGEC
chain: EPKSSDKTHTCPPCPAPELLGGPSVFLFPPKPKDTLMISRTPEVTCVVVDVSHEDPEVKFNWYVDGVEVHNAKTKPREEQYNSTYRVVSVLTVLHQDWLNGKEYKCKVSNKALPAPIEKTISKAKGQPREPQVYTLPPPSEELALNELVTLTCLVKGFYPSDIAVEWLQGSQELPREKYLTWAPVLDSDGSFFLYSILRVAAEDWKKGDTFSCSVMHEALHNHYTQKSLDRSPGK
notes: hu425 Fv; one Fab arm only; also called Charge pair variant 2
B6: one-armed anti-EGFR SEED antibody with KiH2 CH3 domain-exchanged Fab, Variant 1 (antibody)
heavy: QVQLVQSGAEVKKPGASVKVSCKASGYTFTSHWMHWVRQAPGQGLEWIGEFNPSNGRTNYNEKFKSKATMTVDTSTNTAYMELSSLRSEDTAVYYCASRDYDYDGRYFDYWGQGTLVTVSSASTKGEPQVYTLPPSRDELTKNQVSLWCLVKGFYPSDIAVEWESNGQPENNYKTTPPVLDSDGSFFLYSKLTVDKSRWQQGNVFSCSVMHEALHNHYTQKSLSLSKSCDKTHTCPPCPAPELLGGPSVFLFPPKPKDTLMISRTPEVTCVVVDVSHEDPEVKFNWYVDGVEVHNAKTKPREEQYNSTYRVVSVLTVLHQDWLNGKEYKCKVSNKALPAPIEKTISKAKGQPFRPEVHLLPPSREEMTKNQVSLTCLARGFYPKDIAVEWESNGQPENNYKTTPSRQEPSQGTTTFAVTSKLTVDKSRWQQGNVFSCSVMHEALHNHYTQKTISLSPGK
light: DIQMTQSPSSLSASVGDRVTITCSASSSVTYMYWYQQKPGKAPKLLIYDTSNLASGVPSRFSGSGSGTDYTFTISSLQPEDIATYYCQQWSSHIFTFGQGTKVEIKRTVAEPQVYTLPPSRDELTKNQVSLSCAVKGFYPSDIAVEWESNGQPENNYKTTPPVLDSDGSFFLVSKLTVDKSRWQQGNVFSCSVMHEALHNHYTQKSLSLSGEC
chain: EPKSSDKTHTCPPCPAPELLGGPSVFLFPPKPKDTLMISRTPEVTCVVVDVSHEDPEVKFNWYVDGVEVHNAKTKPREEQYNSTYRVVSVLTVLHQDWLNGKEYKCKVSNKALPAPIEKTISKAKGQPREPQVYTLPPPSEELALNELVTLTCLVKGFYPSDIAVEWLQGSQELPREKYLTWAPVLDSDGSFFLYSILRVAAEDWKKGDTFSCSVMHEALHNHYTQKSLDRSPGK
notes: hu425 Fv; one Fab arm only; also called KiH2 variant 1

Target: T1, EGFR (on EGFR-expressing A431 cells) (UniProt P00533 25-1210, limits assumed)
T1 construct: whole, on cells; A431 is a human cell line; also called EGFR-positive cells; EGFR-overexpressing A431 cells
Assay: flow cytometry on A431 cells

Question: Does B1 bind?
Answer: Result: binds

Question: Does B2 bind?
Answer: Result: binds

Question: Does B3 bind?
Answer: Result: binds

Question: Does B4 bind?
Answer: Result: binds

Question: Does B5 bind?
Answer: Result: binds

Question: Does B6 bind?
Answer: Result: binds
